Data published in the domain aggregation screens of Martell et al. (2025).

Assay: soluble fraction after stress (log2 fold change); higher = more stays soluble; pooled small domains, quantitative proteomics
Details: stress: pH 4
Outline: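 High-throughput quantitative proteomics was run on pooled custom libraries of small protein domains following pH 4 stress. Fold changes are on a log2 scale; higher values mean more of a domain remained soluble. The fold change in soluble amount is taken as a measure of aggregation propensity.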

Sequence | soluble fraction (log2)
HMLQKEVHQQIQQALRALPYHQRTAIVLYYYEGMSVKEIAQATGSMQGTVQSRLFFARKKLRPILESILKK | -2.39
HMLQQNRAVEAEQLARKGLSYAQSNIQQAALWRLVAEATEQQGKVDAALNAKNKAMQLEMAG | 0.353
HMLRTLSTSEFAEAIGISESSARRLADSGDLRIRRTKGGHRKIPAEEAIRYAREIQATVVRPDLLGLST | -0.151
HMLRVVSTRQAFDIVRGWADAHPQDPEHNKTLDELEELAKKEVWDDWSRTNEIAERLNALLVSIGANVRTA | -0.314
HMLSDEEKMAALNEQARQRGFTISPGVLPYLITHYQRDMHSLSMILDALDRYSLQTKRTITLPLLHDLLQQ | -0.228
HMLSKEFRFFTYLLESYAQHKNTTAGAVLKTLDEKGLTDFVYKMYDLYHVEAIENAYMDLDSLIATGKPA | -0.989
HMLSKGDRVSWDTPQGRTQGEVVEKKTKDFEHDGQKFTASDDDPAFIVKSEKSGAEAAHKGSALNK | -0.0554
HMLSLGIMEADMLKTGKHTISGISKATPEQRQKIDSDIEELKKKYPEKNITSKVENDNLIVESGVTAP | 0.0639
HMLSNKIEQLRKEKGYTFAKLSELSGISTGRLSDLATGKRNNPTMDTLIKLADALDVTLDELVGR | -0.328
HMLSNYIGMTLGEAKRNLGQGVNITVNGPNNDNAEVTGQDPTSGSSFDKSKDTITLTT | 0.225
HMLSPAQSLLLRTAARRPDGRVIPPDTLRGGARVKVLTSLLQRGWIEPVDGGHVLTDAGYAAIG | ≥ 0.43
HMLSTNDYNENKNKLIKDFEIKFIIKHLKLNKGNVAATARSINFHPVSLRQKIAKLGIDVDEVMAG | -0.341
HMLSTQEYIKKNIENGSWKVGEKIPSENNLTEILGVSRASIRVAIQQFIALDVLNSIHGKGTFVKTNNIMG | 0.207
HMLTALTDREEEILVLLAHNLSNKEIAKRLNLSVNTVRNHTSHIYEKLNVTSRRKAITLAQSLHLLPP | -0.067
HMLTAPMPGIVRQVNVDTGQKVRKGQPLMVLEAMKMEHQIIAPQAGKIEAIHYNEGDRVEMGSVLISIF | -0.538
HMLTAPMPGIVTEILVKEGQRVRSGQPLMILEAMKMEHQVTAPKSGQIEKIYFSEGEKVDMGSDLLSIS | -0.0146
HMLTEEVEISLMDMTKPTQPATIKTTATIQKGATTVMPKQIKMPEGYEFYGNYKMDQPFELTMTFVVKKI | -0.0427
HMLTGESDNVEKSINKLGTENLALADQTNMGFKGTFINSGHGMAIVVKTGMQTELGKIASMIQIA | 0.22
HMLTGISALKPTEAFPDEIFYEIFEIEDNIERTQYIESLRNTARQLKRVTEFNNLYKSFVLDYAQRQKQ | -0.375
HMLTKAEEQVMDYLWKLEKAFVKDILDEFPEPKPAYTTVSTMVRILEKKGMVGYTAYGKNHQYYPL | -1.18
HMLTKSELVFDTLKKRIIDGELEPGTELVISRISEEFNVSTIPVREAIKTLASEGLVEMEPHKSAKVAE | -0.0422
HMLTKSVLGNQIKVLRLEKGLSQEEFGAPVDLSRSAVSQIESGQMYPSLESIGKIVKYYSTSWDNLVG | -0.162
HMLTLDEKRRLQIMRVQVALTSLGLYNGRVDGVLNAETKLGLEFFQDLKGLPKSGTMTTPTLNALGVPA | -0.347
HMLTLSGPEHAVVRALWPEPELDFDVLIRKTGLPSAQLMTLAMQLEMKKIIRRLPGRRLALMDDIRR | -0.716
HMLTRSTVNVETGTAAIGLGKLYGVYDMSRKGLKYSFSVDSDAMTKVMEMLLPLGIKSLTVEPPS | -0.658
HMLTTADLMMVHANSNKAIDYIVTDDNTKLTVDEPVTAKWITTADSIYRAVAYYNKVGDGKAQIVSVGN | 0.0559
HMLTYPEHVRLRMIELRKTRSLSQSEFGTYLGLSYQTISSLELGRHEWSLAHIQTALLRFELPPNYF | -1.82
HMLVATFGPTTGWEGREIIWDVDRFILVGHGAVPAAGVLDYDRRGQLIWAQPELRAWVVEVDRWETG | -1.61

Sequence | soluble fraction (log2)
HMLVMTDNVIKAINDLLNYEAAAGIKKKQRYTAYQIYKELSEQGVYHGSRRRMEEVVSKLRVERNQI | -0.249
HMLVPWKSANLFKLVEPNFRLAERKIPMLPSADREKLQEIMSDMKDAIVDNDKMALMKLDEELTDFLFDFV | -1.03
HMLVSPLDEIPGIGRNRKKTLLNHFGSAKTIEGASLEDLKKVDGISELIAKKIYNYFHLNKNF | 0.104
HMLWTDTKYVTVPDFVGKEPKEIESSYLYNIEYHGEGTKVISQQPAAFSRTIEGGTVRLYLG | 0.186
HMLYGRRFQVEGLNLERYLRAAADSGIPLKGARRFGRTLTGVAAEEHMAALEALARQGGWLFTPLEAVGAN | -0.0895
HMLYKNIAKKLRFRINSDEFAIGDVLPTERQLMEEYQASRVSIRKAIDELVAIDLIEKKQGSGTYIKQKEV | -0.493
HMMESLGIRLKRLRKDKGLTQVELGKLSGVTGVTIGYWEKDLNEPGSKALSKLAQALGTTESYLLYGVS | 0.22
HMMNNKEIGTRIAVLRKGMGDSQAKLAERLDVSPQAVSKWETGQSLPDIGNLLKLSWLFRTSINHILEGS | -0.384
HMNADAPWSPFSPGFTGPMNRPVIGLVTKADLANPQRISLVESWLVQAGAQKVFVTSALENTGVDEMFIFL | -0.288
HMNADLDIQNVNGNTPLWEAVMRYRGDGFFIEQLLKNGANPDIKNNYGVSPKSLARTIANYDVRRFFN | -0.333
HMNADSLIGENIRISERVSNMDQTGMAVVHGQEWTVRTRNDNEIIEPGEEAKILAISGVKLIVEK | -0.0665
HMNAESLIGDRAVVTVAIERNKRGRVDVTGQDWAATTRDGEEIKVGQEVLVVGISGVALIVEER | 0.164
HMNAIYKFVLGMIGKRSGVVTTLPSKKQVEFQANMLAEKFMQNGIDPNALKSPEQVKNVLANIDQ | 0.01
HMNALVAKYKQGVTEEQQQGQGIIIIKRVVVRDQEAWVYEKKIFDWGGVSYFRDKQRITASTFNQETAL | -1.12
HMNAQLTTQEAADLLNVSRPHLVKLLEDGELPFLRTGKHRRVRLADLLQFKNAREQASVQAMDELSRQAQ | -0.177
HMNARSTSYSDFIARVDKDEVASVRLDGETVTYQAADGTTYTTVKPESDPIAERLIAKGIEVNVVRQ | -0.519
HMNASITVPDVRNLTVKQASEQLLASGFTPIPYAATKDGVGNDIVYAQDPPPSVLARSGDQITITYNPA | 0.198
HMNASTVTLENFEGAKYDDVYGKYDYQFSVTYEQTDKYESGVIISQKPEAGTKIIKGSQVSLVVAT | 0.101
HMNASVIADLFRQTGASVMIHGHTHRPDIHALEANGDAAFRAVLGAWHTEGSMIRVTQDDVTLIAFP | 0.173
HMNATLEQLTQREREIAVLMAEGLTNAQIGSRLNVSMASVKAHLSHIFTKLGVDNRVSAAMMVL | -0.0121
HMNATPDMERYWASSAAEGRALEPLYAVSRGDGGEPLWWSPSRAQAERMAREEGGPLTVDRIDPP | -0.0463
HMNAVYAEERRAYILAALEKRGTVHSYELAEQMGVSRETIRRDIMELSNRGLLVKTHGGAIST | -0.352
HMNAYEVLIPNIYIGQRVDQTLASLFPQFSRSRLQNWLARGNLLIDGEIIKPKTKVLGGEQIIILDT | -1.05
HMNDAEEKAEAIEGVKNFMANMEKTDIDFKSKESVLLEQVEEIRKNYPVAQWPVIVKQLYNNIGRL | -0.257
HMNDIDKFVAALVDQDTMAGTNRAFDENDIQTMKNMSSIEDVKQYAVANGLSSGKVNNALISAGL | -0.195
HMNDIQIILQEAVARLPKKQQLVFNMKYFDHLKYQEISEILGTSVGGLKASYFQAVKKIENYIINKH | 0.0158
HMNDRLFQILYLLLEKGTMTAPELSRALEVSVRTIYRDIDALSLAGVPVYATQGKNGGVSLLPNY | -0.758
